*: point of attachment. MethylRed = CN(C)c1ccc(/N=N/c2ccccc2C(=O)*)cc1; FAM = 5(6)-carboxyfluorescein; peptoid = not defined here; Ahx = NCCCCCC(=O)O
Assays:
[1] = molecular target: T1, caspase-3 (Homo sapiens, UniProt P42574); experiment: Kinetic assay of fluorogenic substrates with caspase-3; assay type: biochemical; conditions: substrate range 0.1–8 μM, enzyme 20 nM (1–9) or 15 nM (10–14), n = 3
T1 construct: purchased R&D systems, USA
T1 sequence (P42574 29-175 limits assumed): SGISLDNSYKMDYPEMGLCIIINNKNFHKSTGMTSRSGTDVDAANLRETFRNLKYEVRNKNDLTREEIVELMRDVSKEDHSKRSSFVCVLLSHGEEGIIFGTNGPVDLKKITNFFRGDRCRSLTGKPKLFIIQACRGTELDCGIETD
T1 sequence (P42574 176-277 limits assumed): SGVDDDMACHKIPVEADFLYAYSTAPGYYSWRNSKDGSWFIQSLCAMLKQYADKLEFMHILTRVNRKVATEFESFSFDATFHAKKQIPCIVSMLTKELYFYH
Method: The ability of […] (bearing MR as the quencher of choice) to act as s substrate for caspase-3, as well as caspase-7, was investigated by determining the catalytic efficiency (kcat/KM) for each substrate with both enzymes (Table 2).
Caspase-3 or caspase-7 (R&D systems, USA) was added to 100 μL of caspase assay buffer with substrates 1–14 at concentrations from 0.1 μM to 8 μM in a 96-well plate (n = 3) to give final enzyme concentration of 20 nM (1–9) or 15 nM (10–14). Fluorescence (λEx/Em 485/528 nm) was recorded on a Biotek Synergy HT Multi-Mode Microplate Reader every 2 min. Control samples had the same composition but no enzyme. The rate (μM/min) was calibrated using a 5(6)-carboxyfluorescein conversion factor (0.0055 μM/RFU) and data plotted against time (min). For initial cleavage rate (0–5 min), plots were fitted using linear regression analysis and the Michaelis-Menten data generated using GraphPad Prism 5.

[2] = test system: HEK293T cells; experiment: Live-cell confocal imaging of caspase-3 activation; assay type: cell-based; conditions: 27 at 10 μM
Method: Fig 5 Confocal microscopy images of HEK293T and MCF-7 cells treated with substrate 27. Confocal microscopy images (objective HCX PL APO ×63/1.40–0.6 Oil CS) of HEK273T cells with substrate 27 (10 μM) without staurosporine (STS) (A) and with staurosporine (1 μM) (B) induced apoptosis (green fluorescence is from fluorescein “turned on” by caspase-3 cleavage of the substrate, blue is DAPI nuclear stain). (C) Staurosporine treated MCF-7 cells with substrate 27.
Cell culture was performed in a Heracell 150 incubator (Heraeus) and in a Herasafe KS 18 class II negative-flow cabinet (Heraeus). […] Fluorescence was evaluated as mean fluorescence intensity (MFI) and estimated <100 u.a. for untreated control cells (consistent values independently of staurosporine addition). Apoptotic cells treated with substrate 1 were used as a positive control to obtain the maximum of fluorescence signal. […] The data were analysed using the software Flowjo® 7.5.
For confocal microscopy, the cells were fixed with 4% paraformaldehyde in PBS and the nuclei stained with Hoechst-33342 (1% w/v in PBS). Cellular fluorescence of cells was analysed using an Inverted Leica DM IRB with filter I3 (450–490 nm) and a Leica SP5 Confocal (FITC and DAPI channel).

Km ([1]; fluorescence λEx/Em 485/528 nm, initial rate 0–5 min, Michaelis-Menten): 1.1 ± 0.3 µM | Kcat, Caspase-3 [1]: 0.035 ± 0.013 s⁻¹
Substance: substrate 27: FAM-Ahx-Asp-Leu-Pro-Asp-Lys(MR)-Ahx, conjugated to the cell penetrating peptoid at the C-terminus ({FAM-Ahx}-DLPDK(MethylRed)-{Ahx-peptoid}; reading uncertain; also: printed as FAM-Ahx-Asp-Leu-Pro-Asp-Lys(MR)-Ahx)
fluorescence turn-on in apoptotic cells (confocal) ([2]; staurosporine 1 μM): only detected in the cytoplasm of apoptotic HEK293T cells | fluorescence in non-apoptotic cells (confocal) ([2]; without staurosporine): no increase in fluorescence observed

From PMC4864350, “Fluorogenic Substrates for In Situ Monitoring of Caspase-3 Activity in Live Cells” (PLoS ONE, 2016)
